{"source": "patent US20260248940A1", "about": "“Antibody-Drug Conjugates and Uses Thereof” (Vivasor, Inc., priority 2023, published 2026)", "molecules": {"B1": {"name": "Enoblituzumab (antibody, chains of the INN, looked up)", "heavy": "EVQLVESGGGLVQPGGSLRLSCAASGFTFSSFGMHWVRQAPGKGLEWVAYISSDSSAIYYADTVKGRFTISRDNAKNSLYLQMNSLRDEDTAVYYCGRGRENIYYGSRLDYWGQGTTVTVSSASTKGPSVFPLAPSSKSTSGGTAALGCLVKDYFPEPVTVSWNSGALTSGVHTFPAVLQSSGLYSLSSVVTVPSSSLGTQTYICNVNHKPSNTKVDKRVEPKSCDKTHTCPPCPAPELVGGPSVFLLPPKPKDTLMISRTPEVTCVVVDVSHEDPEVKFNWYVDGVEVHNAKTKPPEEQYNSTLRVVSVLTVLHQDWLNGKEYKCKVSNKALPAPIEKTISKAKGQPREPQVYTLPPSREEMTKNQVSLTCLVKGFYPSDIAVEWESNGQPENNYKTTPLVLDSDGSFFLYSKLTVDKSRWQQGNVFSCSVMHEALHNHYTQKSLSLSPG", "light": "DIQLTQSPSFLSASVGDRVTITCKASQNVDTNVAWYQQKPGKAPKALIYSASYRYSGVPSRFSGSGSGTDFTLTISSLQPEDFATYYCQQYNNYPFTFGQGTKLEIKRTVAAPSVFIFPPSDEQLKSGTASVVCLLNNFYPREAKVQWKVDNALQSGNSQESVTEQDSKDSTYSLSSTLTLSKADYEKHKVYACEVTHQGLSSPVTKSFNRGEC", "notes": "\"Enoblituzumab (MGA271; from Macrogenics), a humanized mAb targeting B7-H3\""}, "B2": {"name": "anti-B7-H3 antibody (B7-H3 VA clone) (antibody, V domains shown)", "VH": "QVQLVQSGAEVKKPGASVKVSCKASGYTFTDSYMHWVRQAPGQGLEWMGWISPRTGGTDYAQKFQGRVTMTRDTSISTAYMELSRLRSDDTAVYYCARGSSRGNDYWGQGTLVTVSS", "VL": "QSVLTQPASVSGSPGQSITISCTGTGSDVGGYNYVSWYQQHPGKAPKLIIYDVTKRPSGFSNRFSGSKSGNTASLTISGLQAEDEADYYCSSYTSRRTYVFGTGTKLTVL", "notes": "IgG/IgG1 appears only as an embodiment; It was detected with a goat anti-human secondary antibody; also called anti-B7H3 VA clone; Sorrento's VA clone"}}, "key": {"Hs700T (B7-H3+) cells": {"system": "Hs700T (B7-H3+) cells", "experiment": "Cell viability assay (CellTiter-Glo 2.0, 120-hour) in Hs700T cells", "format": "cell-based", "settings": "Homo sapiens, Hs 700T, Table 4A, B7-H3 positive, 120-hour treatment"}, "PA-1 (B7-H3+) cells": {"system": "PA-1 (B7-H3+) cells", "experiment": "Cell viability assay (CellTiter-Glo 2.0, 120-hour) in PA-1 cells", "format": "cell-based", "settings": "Homo sapiens; Table 4A; PA-1, B7-H3 positive; 120-hour treatment"}, "U2OS (B7-H3+) cells": {"system": "U2OS (B7-H3+) cells", "experiment": "Cell viability assay (CellTiter-Glo 2.0, 120-hour) in U2OS cells", "format": "cell-based", "settings": "Homo sapiens, Table 4A, B7-H3 positive, 120-hour treatment"}, "NCI-H929 (B7-H3−) cells": {"system": "NCI-H929 (B7-H3−) cells", "experiment": "Cell viability assay (CellTiter-Glo 2.0, 120-hour) in NCI-H929 cells", "format": "cell-based", "settings": "Homo sapiens; Table 4A; NCI-H929, B7-H3 negative; 120-hour treatment"}, "Calu6 (B7-H3+) cells": {"system": "Calu6 (B7-H3+) cells", "experiment": "Cell viability assay (CellTiter-Glo 2.0, 120-hour) in Calu6 cells", "format": "cell-based", "settings": "Homo sapiens, Calu-6; Table 4A; Calu6, B7-H3 positive; 120-hour treatment"}, "[1]": {"system": "B7-H3-expressing renal cell and bladder carcinoma", "settings": "Loo et al., 2012; cited from earlier work"}, "[2]": {"settings": "cynomolgus monkeys; Loo et al., 2012; cited from earlier work"}, "human B7-H3 protein [3]": {"molecular_target": "T1, human B7-H3 protein (human, UniProt Q5ZPR3 29-534)", "T1 construct": "Endogenous B7-H3 on human cancer cell lines; also called CD276; B7-H3 receptor", "T1 sequence": "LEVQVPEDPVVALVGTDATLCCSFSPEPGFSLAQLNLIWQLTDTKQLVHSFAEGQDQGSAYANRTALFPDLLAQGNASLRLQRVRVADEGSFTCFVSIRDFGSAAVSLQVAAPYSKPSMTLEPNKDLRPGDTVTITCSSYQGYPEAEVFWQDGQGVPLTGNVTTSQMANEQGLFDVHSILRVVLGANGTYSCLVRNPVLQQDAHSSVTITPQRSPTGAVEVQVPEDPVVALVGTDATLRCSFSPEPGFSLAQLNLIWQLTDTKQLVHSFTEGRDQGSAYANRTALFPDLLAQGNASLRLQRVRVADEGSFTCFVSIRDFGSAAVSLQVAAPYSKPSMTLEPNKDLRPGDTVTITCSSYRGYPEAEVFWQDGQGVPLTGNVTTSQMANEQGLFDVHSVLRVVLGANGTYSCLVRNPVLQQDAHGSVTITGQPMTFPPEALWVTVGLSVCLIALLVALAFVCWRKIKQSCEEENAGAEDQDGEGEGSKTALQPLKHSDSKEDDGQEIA", "experiment": "flow cytometry on A549 cells, PE-labelled goat anti-human secondary antibody, geometric mean fluorescence", "experimental": "(§1) B7-H3 binding: Tumor cell cultures were harvested by non-enzymatic cell dissociation and plated in RPMI1640 supplemented with 10% fetal bovine serum (FBS) in a 96 well plate. A dilution curve of B7H3 antibody was prepared as a 2× solution and added to each well and incubated at 4C for 1 hour. The cells were washed with PBS+2% FBS+5 mM EDTA (FACS Buffer) before incubation with R-Phycoerythrin labeled goat anti-human secondary antibody for 1 hour at 4C. Cells were washed with FACS buffer and analyzed by flow cytometry."}, "human B7-H3 protein [4]": {"molecular_target": "T1, human B7-H3 protein", "experiment": "flow cytometry on Hs700T cells, PE-labelled goat anti-human secondary antibody, geometric mean fluorescence", "experimental": "as §1"}, "human B7-H3 protein [5]": {"molecular_target": "T1, human B7-H3 protein", "experiment": "flow cytometry on FaDu cells, PE-labelled goat anti-human secondary antibody, geometric mean fluorescence", "experimental": "as §1"}, "human B7-H3 protein [6]": {"molecular_target": "T1, human B7-H3 protein", "experiment": "flow cytometry on HCT-116 cells, PE-labelled goat anti-human secondary antibody, geometric mean fluorescence", "experimental": "as §1"}, "human B7-H3 protein [7]": {"molecular_target": "T1, human B7-H3 protein", "experiment": "flow cytometry on U2OS cells, PE-labelled goat anti-human secondary antibody, geometric mean fluorescence", "experimental": "as §1"}, "human B7-H3 protein [8]": {"molecular_target": "T1, human B7-H3 protein", "experiment": "flow cytometry on MDA-MB-231 cells, PE-labelled goat anti-human secondary antibody, geometric mean fluorescence", "experimental": "as §1"}, "human B7-H3 protein [9]": {"molecular_target": "T1, human B7-H3 protein", "experiment": "flow cytometry on SkNBE(2) cells, PE-labelled goat anti-human secondary antibody, geometric mean fluorescence", "experimental": "as §1"}}}
{"molecule": "CC[C@@]1(O)C(=O)OCc2c1cc1n(c2=O)Cc2c-1nc1cc(F)c(C)c3c1c2[C@@H](NC(=O)CO)CC3", "note": "[Dxd]", "values": [{"measurement": "EC50", "setting": "Hs700T (B7-H3+) cells", "value": 43.9, "unit": "nM"}, {"measurement": "EC50", "setting": "PA-1 (B7-H3+) cells", "value": 2, "unit": "nM"}, {"measurement": "EC50", "setting": "U2OS (B7-H3+) cells", "value": 337, "unit": "nM"}, {"measurement": "EC50", "setting": "NCI-H929 (B7-H3−) cells", "value": 4.7, "unit": "nM"}, {"measurement": "EC50", "setting": "Calu6 (B7-H3+) cells", "value": 7, "unit": "nM"}]}
{"molecule": "B1", "values": [{"measurement": "antitumor activity in xenograft models", "setting": "[1]", "value": "potent antitumor activity"}, {"measurement": "safety findings in toxicology studies", "setting": "[2]", "value": "no significant safety findings"}]}
{"molecule": "B2", "values": [{"measurement": "Kd", "setting": "human B7-H3 protein [3]", "value": 192, "unit": "pM"}, {"measurement": "EC50 (read off the curve)", "setting": "human B7-H3 protein [4]", "value": "~500", "unit": "pM"}, {"measurement": "Kd", "setting": "human B7-H3 protein [4]", "value": 486, "unit": "pM"}, {"measurement": "EC50 (read off the curve)", "setting": "human B7-H3 protein [5]", "value": "~200", "unit": "pM"}, {"measurement": "Kd", "setting": "human B7-H3 protein [5]", "value": 200, "unit": "pM"}, {"measurement": "Kd", "setting": "human B7-H3 protein [6]", "value": 238, "unit": "pM"}, {"measurement": "EC50 (read off the curve)", "setting": "human B7-H3 protein [7]", "value": "~300", "unit": "pM"}, {"measurement": "Kd", "setting": "human B7-H3 protein [7]", "value": 257, "unit": "pM"}, {"measurement": "Kd", "setting": "human B7-H3 protein [8]", "value": 168, "unit": "pM"}, {"measurement": "Kd", "setting": "human B7-H3 protein [9]", "value": 96.8, "unit": "pM"}]}
